In US20170101442A1 (published 2017):

Key:
422 = experiment: cell binding (labeled cells %); HSC-T6 cells; apparent Kd
515 = experiment: as above

Kd 422: 402 µM
Kd 515: 57.6 µM
B1: HSC-T6 cells (receptor)
chain: QAVDLDALCSYTWEAVDSKNNAVYKINPCGHVDNPRCGPTSAVCMCDLKSENCRSVGDSLLRSSAKSLLEFNTTTGCQPSEHRIQTSITFLCGKTLGTPEFVTATDCVHYFEWRTTAACKKDIFKADKEVPCYVFDDKLQKHDLNPLIKLNGGYLVDDSDADASLFINVCRDIDSLRDPSTQLRVCPAGTAACLLKGNQAFDVGRPKEGLKLLSKDRLVLTYVKEEGEKPDFCNGHSPAVTVTFVCPSERREGTIPKLTAKSNCRYEVEWITEYACHRDYLESETCSLSSEQHDIAIDLSPLAQHEEGSPYVADGGEYRFFMNVCGDTKVSLCNKEAAVCQEKKVDSTQVKIAGRHQNQTLRYSDGDLTLIYSGGDECSSGFQRMSVINFECNKTAGQDGRGEPVFTGEVDCTYFFTWDTKYACVKEKEDLLCGAIDGKKRYDLSVLARHSESEQNWEAVDGSQAESEKRNFFINVCHRVLQAGKAKNCPEGAAVCAVDKSGSKNLGKFVSSPTKEKGHIQLSYSDGDDCGNDKKITTNITFVCKPGDLESAPVLRAAGPDGCSYEFEWHTAAACVLSQTEGENCTVLDAQAGFSFDLSLLTKKNGAYKVETDKYDFYINVCGPVSVNLCQSNSGACQVAKSGKSWNLGLSNTKLTYYDGMIQLSYRNGTLYNNEKHTPRSTLITFLCDRDAGVGFPEYQEEDNSTYNFRWYTSYACPEEPLECMVTDPSMMEQYDLSSLVKFEGGRGGNWYAMENSREHFTRRKYYLNVCRPLNPVPGCDRYASACQMKYENNEGSLAETVAISNLGVAKTGPVVEESGSLLLEYVNGSACTTSDGRLTTYSTRIHLVCGRGTMNSHPIFTFNWECVVSFLWNTEAACPIQTITDSDQACSIRDPNSGFVFNLSPLNYSQGHMVLGIGKTFVFNICGTMPACGTVAGKPALGCEAETKIKDIKDLKPERPVGMEKSLQLSAEGFLTLTYKGSSPSDRGTAFIIRFICNGDIYPGTPKFLHQDIDSARGIRNTFFEFETALACIPSVVDCQVTDPAGNEYDLSALSMVRKPWTAVDTSVHGKKRRFYLSVCTPLPYIPGCDGIAMGSCMVSEDKSQNLGVVQISPQATGNGSLSILYVNGDRCGNQRYSTRIVFECAQTSGSPMFQLLNNCEYVFVWRTVEACPVVREEGDNCQVKDPRHGNLYDLKPLALNDTIISAGEYTYYFRVCGKLSLDVCSAHDGSKAVSSCQEKKGPQGFQKVAGLLNQKLTFENGLLKMNYSGGDTCHKVYQRSTTIYFYCDRTTQKPVFLKETLDCSYLFEWRTQYACPPFNVTECSIQDEAGNSIDLSSLSRYSDNWEAVTRTGATEHYLINVCKSLSPQAGTDPCPPEAAVCLLDGSKPVNLGRVRDGPQWTAGVTVLKYVDGDLCPDKIRKRSTIIRFTCSDSQVNSRPLFISAVQDCEYTFSWPTPAACPVKSNIHDDCQVTNPSTGHLFDLSSLSGKAGITASYSEKGMVFMSICEENVNCSPGVGACFGQTRISVGQASKRLSYKDQVLQLVYENGSPCPSKSGLRYKSVISFVCRPEAGPTNRPMLISLDKQSCTLFFSWHTPLACEQATECTVRNGSSIIDLSPLIHRTGGYEAYDESEDDTSDTTPDFYINICQPLNPMHGVPCPAGASVCKVPVDGPPIDIGRVTGPPIFNPVANEVYLNFESSTPCLADKYMNYTSLIAFHCRRGISMVTRDAHTYSIGVCTTAADLDQEGCKDGGVCLLSGSKGASFGRLASMQLDYRHQDEAVILSYVNGDPCPPETEDGEPCVFPFIYKGETYDECVLEGRAKLWCSKTANYDRDHEWGFCRPSTLSICAKEYIKVPWTALREPAFARRVPLVKSRFWGLFILKNWKS
